# Assay results: article PMC7950211 (2021)
# T1: parasite-infected erythrocyte surface protein 15 (PIESP15), P. falciparum, recombinant ectodomain (P. falciparum, biotin (enzymatic monobiotinylation of the bait form))
# T1 chain: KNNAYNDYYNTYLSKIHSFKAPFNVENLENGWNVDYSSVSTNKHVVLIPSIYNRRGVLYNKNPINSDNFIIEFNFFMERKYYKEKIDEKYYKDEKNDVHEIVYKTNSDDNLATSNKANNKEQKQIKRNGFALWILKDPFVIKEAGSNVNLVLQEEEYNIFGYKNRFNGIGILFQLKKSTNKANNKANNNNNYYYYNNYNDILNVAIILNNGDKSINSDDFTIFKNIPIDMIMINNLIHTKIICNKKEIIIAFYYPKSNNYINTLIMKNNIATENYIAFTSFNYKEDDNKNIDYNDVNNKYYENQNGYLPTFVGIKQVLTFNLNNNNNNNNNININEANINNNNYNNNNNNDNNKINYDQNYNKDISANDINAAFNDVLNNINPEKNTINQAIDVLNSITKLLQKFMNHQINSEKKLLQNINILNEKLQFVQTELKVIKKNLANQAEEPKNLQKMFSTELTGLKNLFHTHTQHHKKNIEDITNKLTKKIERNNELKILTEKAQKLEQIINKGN
# T2: PF3D7_0526900, P. falciparum p24 family protein, recombinant ectodomain (P. falciparum, biotin (enzymatic monobiotinylation of the bait form))
# T2 chain: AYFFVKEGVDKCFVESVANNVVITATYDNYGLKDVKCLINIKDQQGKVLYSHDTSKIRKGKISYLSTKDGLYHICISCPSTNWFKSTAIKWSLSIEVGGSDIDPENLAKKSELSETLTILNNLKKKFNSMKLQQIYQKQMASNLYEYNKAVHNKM
# T3: PF3D7_0721100, P. falciparum predicted secreted protein, recombinant (P. falciparum, biotin (enzymatic monobiotinylation))
# T3 chain: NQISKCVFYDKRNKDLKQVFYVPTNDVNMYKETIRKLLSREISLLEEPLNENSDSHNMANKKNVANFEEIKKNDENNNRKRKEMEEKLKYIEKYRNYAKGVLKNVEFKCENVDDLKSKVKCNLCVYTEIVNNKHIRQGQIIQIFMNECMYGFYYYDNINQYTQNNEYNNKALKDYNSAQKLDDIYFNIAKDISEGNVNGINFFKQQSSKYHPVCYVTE
# B1: PF3D7_0702900, P. falciparum secreted protein with tandem EF-hand domains, recombinant (natural protein)
# chain: QDNKNKVEETHEEQGEMTQEEKDEIYSEFVDYDLNKDGLIDAEEIVVTLKNMKKADFINFFNKVDLDSSGTISIDEYMLFINSN
# modifications: biotin (enzymatic monobiotinylation of the bait form)
# B2: PF3D7_0422100, P. falciparum p24 family protein, recombinant ectodomain (domain or fragment)
# chain: NFVLSNANTNNVNKNGANKKNNANNNNMNKAGDKKKATKGKKGNANDNVNEFNFNFNDLLNEINNAATNDNNNNNNDNNNDNNNNNNNNNNNYNGKNEINENNFNEEYNKLEKNFQMNAEDDDNNRGDINMDQFNEKKNNLNEDNNKMKPNANDYQYNENDADTDSEEDLTNIWNKNMQNFEPSTLLTFEIPSNSEEYLFEEVPEVNTYFRGVFYSNNEADDNIIEFLISDPDGQVIYKKEASEGIFYFYTKKVGIYTLTLKNNKWMGKKLTTVALGLGENPSLRSDHVKDFTNYIQRIVAETKKLKNEIKYLSSKHMRHIEKMKKITNK
# modifications: biotin (enzymatic monobiotinylation of the bait form)
# B3: CelTOS, P. falciparum, recombinant (natural protein)
# chain: FRGNNGHNSASSLYNGAQFIEQLNNAFTSAFLESQSMNKIGDDLAETISNELVSVLQKNSPTFLESSFDIKSEVKKHAKSMLKELIKVGLPSFENLVAENVKPPKVDPATYGIIVPVLTSLFNKVETAVGAKVSDEIWNYNSPDVSESEESLSDDFFD
# modifications: biotin (enzymatic monobiotinylation of the bait form)
# Experiments:
# Assay in all cases: SPR
# [1] = target: T1, parasite-infected erythrocyte surface …
# [2] = target: T2, PF3D7_0526900, P. falciparum p24 family …
# [3] = target: T3, PF3D7_0721100, P. falciparum predicted …
binder,measurement,setting,value
B1,koff,[1],0.035 s⁻¹
B2,koff,[2],0.23 s⁻¹
B3,koff,[3],0.025 s⁻¹
